Measurements reported in patent publication US7262177B2, “Conjugates of glycosylated/galactosylated peptide, bifunctional linker, and nucleotidic monomers/polymers, and related compositions and methods of use” (priority 2000, dated 2007).

Columns and labels:
[1] = Hepatic and systemic toxicity, 4 weekly bolus injections; format: in vivo, CD-1 mice
Experimental: Mice have previously been used as in vivo models for 5FU drug testing in the following manner (Ain et al., J. Surg. Res., 57, 366-372 (1994); Wang et al., Cancer Res., 50, 869s-872s (1990)). The plasma profiles, induced toxicities and pharmacokinetics of 5FU in mice are similar to those observed in humans (Wagner et al., Cancer Res., 46, 1499-1506 (1986)). Both po 1-mer and 5FdU were administered on a clinically relevant regimen of 4 weekly bolus injections via the tail vein (Anfield et al., Cancer, 39, 34-40 (1977)). The starting doses of 10 mg/kg and 15 mg/kg were determined by extrapolation of the in vitro data. One week after each injection, a cohort of animals (6 animals/dose/treatment) was sacrificed. Blood and liver samples were collected from each animal and assayed for hepatic and systemic toxicities. The blood sample analyses included a Superchem panel and a total blood count. The Superchem panel assayed blood levels of glucose, urea nitrogen (BUN), creatinine, total protein, albumin, both conjugated and unconjugated bilirubin, triglycerides, SGOT, SGPT, triglycerides, CPK, alkaline phosphatase, and peripheral blood differentials. Total blood counts were analyzed for hematocrit, as well as both red and white blood cell counts. Liver samples were subjected to histological analysis in order to determine changes in morphology, architecture and increase in necrotic tissue as compared to the controls. Any acute or sustained increases in blood counts or serum components indicative of organ damage in comparison with the untreated control was taken to be indicative of a toxic response. In addition, the weights of each cohort were recorded throughout the treatment period as an indication of their clinical condition.

[2] = molecular target: T1, thymidylate synthase (TS) (Homo sapiens, UniProt P04818); assay: Thymidylate synthase activity in treated TSU cells; format: cell-based; conditions: TSU carcinoma cells, 1 μM
T1 construct: endogenous in cells; host or cells: Hep G2
Experimental: Thymidylate synthase inhibition results in insufficient thymidylate levels for DNA replication and can lead to intracellular signaling processes that ultimately lead to cell death. The activity of this paramount enzyme was determined based on the methods of Keyomarsi et al. (J. Biol. Chem., 268, 15142-15149 (1993)). Briefly, 10^5 Hep G2 or TSU cells were grown in culture for 48 h and then the medium was made to a concentration of 1 μM with either po 1-mer or unconjugated 5FdU. At regular intervals (24 hrs, 48 hrs, 72 hrs and 96 hrs) after treatment, the medium was removed and replaced with medium containing deoxyuridine/[^3H]-deoxyuridine mixtures. Cells were incubated at 37° C. for 30 min. Cell medium was then removed and precipitated with charcoal. The supernatant was then counted to determine the presence of [^3H]-H2O. The measurable release of [^3H] as [^3H]-H2O from deoxyuridine, 5′-monophosphate (dUMP) substrate reflects thymidylate synthase activity.

[3] = tested on: TSU carcinoma cells; assay: Viability of TSU carcinoma cells; format: cell-based, human; conditions: TSU carcinoma cells treated with conjugate
[4] = 10 mg/kg weekly, WEEK 6 (treatment stopped for two weeks)

T1 sequence (P04818 2-313 limits assumed): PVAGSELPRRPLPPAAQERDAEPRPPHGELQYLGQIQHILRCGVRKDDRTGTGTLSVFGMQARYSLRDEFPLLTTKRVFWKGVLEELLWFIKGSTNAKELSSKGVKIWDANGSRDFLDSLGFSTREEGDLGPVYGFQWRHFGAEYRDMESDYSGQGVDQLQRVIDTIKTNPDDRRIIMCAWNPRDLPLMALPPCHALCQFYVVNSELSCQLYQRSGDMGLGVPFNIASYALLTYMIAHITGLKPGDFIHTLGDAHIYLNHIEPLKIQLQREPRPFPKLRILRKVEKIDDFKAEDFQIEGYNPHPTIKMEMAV

CC(=O)N[C@H]1[C@H](OCCCCCCNC(=O)CC[C@H](NC(=O)CC[C@H](NC(=O)[C@H](Cc2ccc(O)cc2)NC(=O)C2CCC(CN3C(=O)CC(SCCCCCCOP(=O)(O)OC[C@H]4O[C@@H](n5cc(F)c(=O)[nH]c5=O)C[C@@H]4O)C3=O)CC2)C(=O)NCCCCCCO[C@@H]2O[C@H](CO)[C@H](O)[C@H](O)[C@H]2NC(C)=O)C(=O)NCCCCCCO[C@@H]2O[C@H](CO)[C@H](O)[C@H](O)[C@H]2NC(C)=O)O[C@H](CO)[C@H](O)[C@@H]1O (some centres unmarked) [po 1-mer, YEE(ahGalNAc)3-SMCC-poFU]
histological analysis of liver ([1]; 10 mg/kg weekly): mild hepatocellular swelling | increased total bilirubin and gamma-glutamyl transferase (GT) levels ([1]; 10 mg/kg weekly): not observed | lactate dehydrogenase levels ([1]; 10 mg/kg weekly): increased | BUN ([1]; 10 mg/kg weekly, WEEK 1): 24.66 mg/dL | Calcium ([1]; 10 mg/kg weekly, WEEK 1): 7.56 mg/dL | Chloride ([1]; 10 mg/kg weekly, WEEK 1): 106.33 meq/l | MCH ([1]; 10 mg/kg weekly, WEEK 1): 17.2 pg | MCV ([1]; 10 mg/kg weekly, WEEK 1): 51.5 fL | Potassium ([1]; 10 mg/kg weekly, WEEK 1): 11.63 meq/l | SGOT ([1]; 10 mg/kg weekly, WEEK 1): 335.5 u/l | SGPT ([1]; 10 mg/kg weekly, WEEK 1): 46.5 u/l | Sodium ([1]; 10 mg/kg weekly, WEEK 1): 155.6 meq/l | WBC ([1]; 10 mg/kg weekly, WEEK 1): 4.86 thds/cmm | BUN ([1]; 10 mg/kg weekly, WEEK 2): 18 mg/dL | Calcium ([1]; 10 mg/kg weekly, WEEK 2): 7.75 mg/dL | Chloride ([1]; 10 mg/kg weekly, WEEK 2): 95 meq/l | MCH ([1]; 10 mg/kg weekly, WEEK 2): 15.6 pg | MCV ([1]; 10 mg/kg weekly, WEEK 2): 51 fL | Potassium ([1]; 10 mg/kg weekly, WEEK 2): 11.1 meq/l | SGOT ([1]; 10 mg/kg weekly, WEEK 2): 911.33 u/l | SGPT ([1]; 10 mg/kg weekly, WEEK 2): 110 u/l | Sodium ([1]; 10 mg/kg weekly, WEEK 2): 142.5 meq/l | WBC ([1]; 10 mg/kg weekly, WEEK 2): 3.16 thds/cmm | BUN ([1]; 10 mg/kg weekly, WEEK 3): 22 mg/dL | Calcium ([1]; 10 mg/kg weekly, WEEK 3): 8.85 mg/dL | Chloride ([1]; 10 mg/kg weekly, WEEK 3): 87.5 meq/l | MCH ([1]; 10 mg/kg weekly, WEEK 3): 16.56 pg | MCV ([1]; 10 mg/kg weekly, WEEK 3): 56 fL | Potassium ([1]; 10 mg/kg weekly, WEEK 3): 8.9 meq/l | SGOT ([1]; 10 mg/kg weekly, WEEK 3): 1174 u/l | SGPT ([1]; 10 mg/kg weekly, WEEK 3): 177 u/l | Sodium ([1]; 10 mg/kg weekly, WEEK 3): 152.5 meq/l | WBC ([1]; 10 mg/kg weekly, WEEK 3): 2.8 thds/cmm | BUN ([1]; 10 mg/kg weekly, WEEK 4): 21.33 mg/dL | Calcium ([1]; 10 mg/kg weekly, WEEK 4): 6.5 mg/dL | Chloride ([1]; 10 mg/kg weekly, WEEK 4): 86.66 meq/l | MCH ([1]; 10 mg/kg weekly, WEEK 4): 16.42 pg | MCV ([1]; 10 mg/kg weekly, WEEK 4): 52.83 fL | Potassium ([1]; 10 mg/kg weekly, WEEK 4): 12.46 meq/l | SGOT ([1]; 10 mg/kg weekly, WEEK 4): 1549.5 u/l | SGPT ([1]; 10 mg/kg weekly, WEEK 4): 125.66 u/l | Sodium ([1]; 10 mg/kg weekly, WEEK 4): 161.6 meq/l | WBC ([1]; 10 mg/kg weekly, WEEK 4): 1.83 thds/cmm | BUN [1, 4]: 22.44 mg/dL | Calcium [1, 4]: 7.7 mg/dL | Chloride [1, 4]: 89.72 meq/l | MCH [1, 4]: 16.1 pg | MCV [1, 4]: 51.18 fL | Potassium [1, 4]: 10.82 meq/l | SGOT [1, 4]: 1211.61 u/l | SGPT [1, 4]: 137.55 u/l | Sodium [1, 4]: 162.22 meq/l | WBC [1, 4]: 3.03 thds/cmm | weight gain ([1]; 10 mg/kg weekly, four week period): progressive and similar to the saline-treated control mice | complete blood count: platelets ([1]; 15 mg/kg weekly): mild thrombocytopenia | histological analysis of liver ([1]; 15 mg/kg weekly): mild hepatocellular swelling and limited subcapsular fibrosis in one mouse | increased total bilirubin and gamma-GT levels ([1]; 15 mg/kg weekly): not observed | lactate dehydrogenase levels ([1]; 15 mg/kg weekly): increased | weight gain ([1]; 15 mg/kg weekly): somewhat less than the untreated control mice | BUN ([1]; 15 mg/kg weekly, WEEK 1): 26 mg/dL | Calcium ([1]; 15 mg/kg weekly, WEEK 1): 9.15 mg/dL | Chloride ([1]; 15 mg/kg weekly, WEEK 1): 101.33 meq/l | MCH ([1]; 15 mg/kg weekly, WEEK 1): 16.83 pg | MCV ([1]; 15 mg/kg weekly, WEEK 1): 50 fL | Potassium ([1]; 15 mg/kg weekly, WEEK 1): 8.9 meq/l | SGOT ([1]; 15 mg/kg weekly, WEEK 1): 730 u/l | SGPT ([1]; 15 mg/kg weekly, WEEK 1): 67.5 u/l | Sodium ([1]; 15 mg/kg weekly, WEEK 1): 154.5 meq/l | WBC ([1]; 15 mg/kg weekly, WEEK 1): 2 thds/cmm | BUN ([1]; 15 mg/kg weekly, WEEK 3): 22 mg/dL | Calcium ([1]; 15 mg/kg weekly, WEEK 3): 7.73 mg/dL | Chloride ([1]; 15 mg/kg weekly, WEEK 3): 87.5 meq/l | MCH ([1]; 15 mg/kg weekly, WEEK 3): 16.56 pg | MCV ([1]; 15 mg/kg weekly, WEEK 3): 56.556 fL | Potassium ([1]; 15 mg/kg weekly, WEEK 3): 8.7 meq/l | SGOT ([1]; 15 mg/kg weekly, WEEK 3): 1194 u/l | SGPT ([1]; 15 mg/kg weekly, WEEK 3): 120.3 u/l | Sodium ([1]; 15 mg/kg weekly, WEEK 3): 156.5 meq/l | WBC ([1]; 15 mg/kg weekly, WEEK 3): 2.1 thds/cmm | BUN ([1]; 15 mg/kg weekly, WEEK 4): 20.33 mg/dL | Calcium ([1]; 15 mg/kg weekly, WEEK 4): 6.7 mg/dL | Chloride ([1]; 15 mg/kg weekly, WEEK 4): 81.66 meq/l | MCH ([1]; 15 mg/kg weekly, WEEK 4): 14.2 pg | MCV ([1]; 15 mg/kg weekly, WEEK 4): 51 fL | Potassium ([1]; 15 mg/kg weekly, WEEK 4): 13.46 meq/l | SGOT ([1]; 15 mg/kg weekly, WEEK 4): 1669.5 u/l | SGPT ([1]; 15 mg/kg weekly, WEEK 4): 123.66 u/l | Sodium ([1]; 15 mg/kg weekly, WEEK 4): 165.6 meq/l | WBC ([1]; 15 mg/kg weekly, WEEK 4): 1.85 thds/cmm | overall toxicity ([1]; 10 and 15 mg/kg weekly): mild at best | inhibition of TS activity [2]: no inhibitory effect | viability of cells [3]: not affected
